# Assay results taken from paper doi:10.1101/2024.05.25.595884 (bioRxiv, 2024).
# Biological target: full-length human HER2 with enhanced green fluorescent protein (eGFP) at the C-terminal end (Homo sapiens, UniProt P04626)
# Test: SPID
binding result,Kd [nM],fold enhancement in affinity compared to the original Trastuzumab [fold],Binder
binds,–,–,"Trastuzumab scFab HCDR3 variant clone H3_72 (Fab, V domains shown) VH: EVQLVESGGGLVQPGGSLRLSCAASGFNIKDTYIHWVRQAPGKGLEWVARIYPTNGYTRYADSVKGRFTISADTSKNTAYLQMNSLRAEDTAVYYCSRWRGKGFTAMDYWGQGTLVTVSS VL: not shown"
–,2.6,–,"Trastuzumab scFab HCDR2 variant IRPVRG (Fab, V domains shown) VH: EVQLVESGGGLVQPGGSLRLSCAASGFNIKDTYIHWVRQAPGKGLEWVARIRPVRGYTRYADSVKGRFTISADTSKNTAYLQMNSLRAEDTAVYYCSRWGGDGFYAMDYWGQGTLVTVSS VL: not shown"
binds,–,–,"Trastuzumab scFab HCDR3 variant clone H3_29 (Fab, V domains shown) VH: EVQLVESGGGLVQPGGSLRLSCAASGFNIKDTYIHWVRQAPGKGLEWVARIYPTNGYTRYADSVKGRFTISADTSKNTAYLQMNSLRAEDTAVYYCSRWRSIGFYAMDYWGQGTLVTVSS VL: not shown"
–,< 1,6,"Trastuzumab scFab HCDR2/HCDR3 cross-combination clone H2/3_07 (Fab, V domains shown) VH: EVQLVESGGGLVQPGGSLRLSCAASGFNIKDTYIHWVRQAPGKGLEWVARIRPVRGYTRYADSVKGRFTISADTSKNTAYLQMNSLRAEDTAVYYCSRWRSIGFYAMDYWGQGTLVTVSS VL: not shown"
binds,–,–,"Trastuzumab scFab HCDR3 variant clone H3_77 (Fab, V domains shown) VH: EVQLVESGGGLVQPGGSLRLSCAASGFNIKDTYIHWVRQAPGKGLEWVARIYPTNGYTRYADSVKGRFTISADTSKNTAYLQMNSLRAEDTAVYYCSRWRRKGFYAMDYWGQGTLVTVSS VL: not shown"
binds,–,–,"Trastuzumab scFab HCDR3 variant clone H3_85 (Fab, V domains shown) VH: EVQLVESGGGLVQPGGSLRLSCAASGFNIKDTYIHWVRQAPGKGLEWVARIYPTNGYTRYADSVKGRFTISADTSKNTAYLQMNSLRAEDTAVYYCSRWGRHGFNAMDYWGQGTLVTVSS VL: not shown"
–,< 1,6,"Trastuzumab scFab HCDR2/HCDR3 cross-combination clone H2/3_03 (Fab, V domains shown) VH: EVQLVESGGGLVQPGGSLRLSCAASGFNIKDTYIHWVRQAPGKGLEWVARIKPANGYTRYADSVKGRFTISADTSKNTAYLQMNSLRAEDTAVYYCSRWRSIGFYAMDYWGQGTLVTVSS VL: not shown"
